Data as given in patent US20250051456A1 (Hoffmann-La Roche, published 2025).

B1: HLA-G-0041 (antibody, V domains shown)
VH: EVQLLESGGGLVQPGGSLRLSCAASGFTFSTYGMSWVRQAPGKGLEWVSVISGGGVSTYYADSVKGRFTISRDNSKNTLYLQMNRLRAEDTAVYYCAKDGSYNYGYGDYFDYWGQGTLVTVSS
VL: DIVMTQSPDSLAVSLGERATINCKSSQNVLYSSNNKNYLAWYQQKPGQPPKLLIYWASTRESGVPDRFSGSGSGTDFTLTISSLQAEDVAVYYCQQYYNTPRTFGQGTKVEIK
B2: HLA-G-0090 (antibody, V domains shown)
VH: QVQLQQSGPGLLKPSQTLSLTCAISGDSVSSNRAAWNWIRQSPSRGLEWLGRTYYRSKWYNDYAVSVQGRITLIPDTSKNQFSLRLNSVTPEDTAVYYCASVRAVAPFDYWGQGVLVTVSS
VL: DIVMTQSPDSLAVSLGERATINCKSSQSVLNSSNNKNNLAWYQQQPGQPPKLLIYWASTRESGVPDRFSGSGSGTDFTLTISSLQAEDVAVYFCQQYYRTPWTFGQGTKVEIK
B3: HLA-G-0031 (antibody, V domains shown)
VH: QVKLMQSGAALVKPGTSVKMSCNASGYTFTDYWVSWVKQSHGKRLEWVGEISPNSGASNFDENFKDKATLTVDKSTSTAYMELSRLTSEDSAIYYCTRSSHGSFRWFAYWGQGTLVTVSS
VL: AIVLNQSPSSIVASQGEKVTITCRASSSVSSNHLHWYQQKPGAFPKFVIYSTSQRASGIPSRFSGSGSGTSYSFTISRVEAEDVATYYCQQGSSNPYTFGAGTKLELK

How the values were obtained:
[1] = molecular target: T1, monomeric human HLA-G β2M MHC class I complex (soluble recombinant wt HLA-G) (human); test: ELISA, biotinylated wt HLA-G monomer on streptavidin plate; the 6th table ELISA series (monomer, dimer, trimer), separate from the 7th table
T1 construct: also called HLA-G-0003; wt HLA-G (monomer)
Description: The above table summarizes the binding of different rat anti-human HLA-G monoclonal antibodies, derived from wt protein IMS. Shown are the relative EC50 values [ng/ml] of the respective binding to rec. wt monomeric, dimeric and trimeric HLA-G proteins as assessed by ELISA. The ELISA was set up by coating the biotinylated wt HLA-G antigen to strepdavidin plates. After incubation and washing steps, the respective antibodies were bound in a concentration range from […] in 1:2 dilution steps. Detection of bound antibodies was carried out by anti-Fc-antibody-POD conjugates. EC50 values were determined from the resulting binding curves at the antibody concentrations generating the half-maximal signal. In case of the non-biotinylated HLA-G dimer and trimer antigens, immobilization was carried out by random coating on assay plates.

[2] = molecular target: human HLA-G expressed on cells (JEG3 naturally; Skov3 and PA-TU-8902 transfectants) (human); test: cell-based or functional assay

| Binder | EC50 [1] | % TNF release (restoration), different donor, JEG-3 wt co-culture; antibody 0.16 µg/ml [2] | % TNF release (restoration), different donor, JEG-3 wt co-culture; antibody 0.63 µg/ml [2] | % TNF release (restoration), different donor, JEG-3 wt co-culture; antibody 2.5 µg/ml [2] | % TNF release (restoration), different donor, JEG-3 wt co-culture; antibody 10 µg/ml [2] |
| --- | --- | --- | --- | --- | --- |
| B1 | 4.95 ng/mL | 44% | 66% | 59% | 40% |
| B2 |  | 198% | 219% | 233% | 221% |
| B3 |  | 14% | 44% | 67% | 74% |
